In patent US20100233157A1 (published 2010):
Numbering of substitutions follows the chain as printed.

Columns and labels:
[1] = molecular target: T1, Human Fas (CD95) on the cell surface (human, UniProt P25445 26-335); assay: cell-based or functional assay
T1 sequence: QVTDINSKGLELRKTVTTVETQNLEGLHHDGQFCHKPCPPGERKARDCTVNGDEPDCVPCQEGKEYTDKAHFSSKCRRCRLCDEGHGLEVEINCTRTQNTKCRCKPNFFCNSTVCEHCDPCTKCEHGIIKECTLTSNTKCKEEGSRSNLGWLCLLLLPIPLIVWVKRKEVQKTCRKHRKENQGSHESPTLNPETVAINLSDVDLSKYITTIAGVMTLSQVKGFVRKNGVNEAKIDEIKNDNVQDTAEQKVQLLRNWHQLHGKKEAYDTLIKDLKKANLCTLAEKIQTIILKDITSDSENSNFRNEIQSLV

[2] = molecular target: T1, Human Fas (CD95) on the cell surface; assay: flow cytometry on Jurkat cells, FITC anti-human IgG secondary, geometric MFI after background subtraction
Description: (§1) Binding of F45D9-γ1 and F45D9-γ4 to the surface of Fas expressing Jurkat and SKW6.4 cells (from ATCC, Jurkat, clone E6-1, ATCC-TIB-152, Human T Leukemia cell line); SKW6.4 cells, ATCC-TIB-215, Human B lymphoblastoid cell line) was explored by immunofluorescence staining and flow cytometry analysis. Cells were cultured in RPMI 1640 medium (GIBCO, Cat. 3105205) supplemented with 2 mM glutamax (GIBCO), 100 UI/mL penicillin, 100 μg/mL streptomycin (Sigma) and 5-10% fetal bovine serum (GIBCO), at 37° C. and 5% CO₂. After washing in PBS Jurkat or SKW6.4 cells (0.2×10⁶ cells/well) were incubated in staining buffer (PBS/1% FBS) containing F45D9-γ1, F45D9-γ4 or human IgG control antibodies (Human IgG1, kappa, Sigma, Cat. I5154 or Human IgG4, kappa, Sigma, Cat. I4639) in a 96-well U-bottom plate for 30 min on ice, in a 100 ul/well volume. Cells were then washed once with staining buffer, and further incubated for 30 min on ice with 1:30 dilution of FITC-conjugated rabbit F(ab′)₂ anti-human IgG (DakoCytomation Cat. F0056). After washing and fixing with 1% formaldehyde in PBS cells were analyzed in a FACScan (Becton Dickinson, Mountain View, Calif.). The reactivity of F45D9-γ1 and F45D9-γ4 to the surface of Jurkat cells was quantified and Geometric Mean Fluorescence Intensity (MFI) after background subtraction (FIG. 1A) and histograms (FIG. 1B) are shown. […]

[3] = molecular target: T2, Chimpanzee Fas on the cell surface (chimpanzee, UniProt K6ZIR5 26-335); assay: flow cytometry on chimpanzee cells
T2 construct: also called Fas on chimpanzee B cell line
T2 sequence: T1 sequence with G26D, T135A, G150W, E264D, D272G

[4] = molecular target: T3, Recombinant human soluble Fas receptor (PeproTech, Cat. 310-20) (human, UniProt P25445 17-173); assay: SPR (BIAcore 3000), soluble Fas immobilized on CM5 chip, antibody as analyte, bivalent analyte fit
T3 construct: Bought soluble form; also called sFas; rFas
T3 sequence (looked up): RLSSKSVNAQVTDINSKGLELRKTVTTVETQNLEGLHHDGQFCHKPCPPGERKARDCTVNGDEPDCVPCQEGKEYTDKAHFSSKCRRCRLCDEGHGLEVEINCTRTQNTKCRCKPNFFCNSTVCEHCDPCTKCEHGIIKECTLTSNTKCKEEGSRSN
Description: The interaction of F45D9 mAb's (γ-γ1 and γ4-isotypes) with immobilized soluble human Fas receptor was monitored by surface plasmon resonance detection using a BIAcore 3000 instrument. Recombinant human soluble Fas receptor (srFas) (PeproTech, cat. 310-20) was immobilized (concentration of 5 ug/ml in immobilization buffer: 10 mM sodium acetate pH 5.0) onto a CM5 sensor chip (BIAcore BR-1001-14) using an Amine Coupling kit (BIAcore, Cat. BR-1000-50), at a surface density of […] resonance units (RU). Deactivation of excess reactive groups on the chip surface was done by adding 1.0 M ethalonamine hydrochloride (pH 8.5). F45D9 mAb's-γ1 mAb were passed over the surface in equilibrium binding experiments at concentrations ranging from […] at a flow rate of 30 ul/min. Dilutions and binding experiments were conducted in 0.01 M HEPES (pH 7.4), 0.15 M NaCl, 3 mM EDTA, and 0.005% P-20 (BIAcore surfactant, BR-1001-88). Between each cycle 100 mM HCl was used to regenerate the surfaces at a flow rate 30 ul/min. KA and KD of F45D9 mAb's were-γ1 mAb was determined by fitting bivalentusing BIAcore models (BIAevaluation).

[5] = molecular target: T1, Human Fas (CD95) on the cell surface; assay: flow cytometry on SKW6.4 cells, FITC anti-human IgG secondary, geometric MFI after background subtraction
Description: as §1

[6] = molecular target: T4, Pig Fas on the cell surface (pig, UniProt O77736 17-332); assay: flow cytometry, pig peripheral blood lymphocytes
T4 construct: whole, on cells; also called Fas on pig peripheral blood lymphocytes
T4 sequence (looked up): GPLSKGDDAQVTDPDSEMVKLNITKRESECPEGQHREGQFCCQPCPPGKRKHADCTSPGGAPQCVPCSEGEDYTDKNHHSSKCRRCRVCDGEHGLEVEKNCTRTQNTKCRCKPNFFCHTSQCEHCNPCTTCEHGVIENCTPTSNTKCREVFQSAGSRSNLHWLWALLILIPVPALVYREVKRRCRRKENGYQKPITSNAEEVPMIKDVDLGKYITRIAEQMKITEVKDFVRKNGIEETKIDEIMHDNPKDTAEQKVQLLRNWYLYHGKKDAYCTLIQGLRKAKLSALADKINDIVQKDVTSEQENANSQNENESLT
From the text: (§2) Reactivity of F45D9-γ1 or F45D9-γ4 mAb with Fas molecules of various species was initially screened using primary blood cells or lymphocytes cell lines. The binding of F45D9-γ1 or F45D9-γ4 mAb was explored by immunofluoresce staining and flow cytometry analysis, in human PBMC, purified human resting T cells, activated human T cells, peripheral blood lymphocytes (PBL) derived from BALE/c mice, rat, dog and pig, and in B cell lines or PBL derived from common marmoset, cynomolgus macaque, olive baboon, rhesus macaque and chimpanzee. Resting and activated human T cells were prepared as described in Example 7. B cells lines from monkeys were obtained from Biomedical Primate Research Center (Rijswijk, The Netherlands), and were cultured in RPMI 1640 medium supplemented with 2 mM glutamax, 100 UI/mL penicillin, 100 μg/mL streptomycin and 10% fetal bovine serum, at 37° C. and 5% CO₂. After washing in PBS cells (0.2−0.4×10⁶ cells/well) were incubated in staining buffer (PBS/1% FBS) containing F45D9-γ1 or human IgG control antibodies (10-20 ug/ml) in a 96-well U-bottom plate for 30 min on ice, in a 100 ul/well volume. Cells were then washed once with staining buffer, and further incubated for 30 min on ice with 1:30 dilution of FITC-conjugated rabbit F(ab′)₂ anti-human kappa (DakoCytomation Cat. F0434) or FITC-conjugated rabbit F(ab′)₂ anti-human IgG (DakoCytomation Cat. F0056). […]

[7] = molecular target: T5, Mouse Fas on the cell surface (mouse, UniProt P25446 22-327); assay: flow cytometry, peripheral blood lymphocytes of mice
T5 construct: whole, on cells; also called Fas on peripheral blood lymphocytes of BALB/c mice
T5 sequence (looked up): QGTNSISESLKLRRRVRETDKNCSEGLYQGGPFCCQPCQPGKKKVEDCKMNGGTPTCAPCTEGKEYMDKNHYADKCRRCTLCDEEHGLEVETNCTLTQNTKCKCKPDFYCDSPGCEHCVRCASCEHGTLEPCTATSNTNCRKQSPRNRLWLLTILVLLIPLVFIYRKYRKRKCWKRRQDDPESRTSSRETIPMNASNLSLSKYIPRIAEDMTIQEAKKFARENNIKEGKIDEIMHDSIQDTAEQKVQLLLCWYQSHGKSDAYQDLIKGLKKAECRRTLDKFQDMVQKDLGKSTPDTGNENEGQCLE
From the text: as §2

[8] = molecular target: T6, Cynomolgus macaque Fas on the cell surface (cynomolgus macaque, UniProt Q9TSN4 26-331); assay: flow cytometry, cynomolgus macaque B cell line
T6 construct: whole, on cells; also called Fas on cynomolgus macaque B cell line and PBL
T6 sequence (looked up): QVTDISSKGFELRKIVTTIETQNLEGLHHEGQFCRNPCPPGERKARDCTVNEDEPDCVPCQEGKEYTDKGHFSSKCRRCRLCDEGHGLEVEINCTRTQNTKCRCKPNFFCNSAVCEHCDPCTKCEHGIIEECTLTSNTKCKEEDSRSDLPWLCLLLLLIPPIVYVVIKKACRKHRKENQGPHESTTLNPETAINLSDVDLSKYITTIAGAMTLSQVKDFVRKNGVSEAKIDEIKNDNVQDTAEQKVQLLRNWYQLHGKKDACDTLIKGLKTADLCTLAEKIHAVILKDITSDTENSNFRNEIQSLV
From the text: as §2

[9] = molecular target: T3, Recombinant human soluble Fas receptor …; assay: SPR (BIAcore 3000), soluble Fas immobilized on CM5 chip; antibody form and model not given
[10] = molecular target: T7, Rhesus macaque Fas on the cell surface (rhesus macaque, UniProt Q9BDP2 26-333); assay: flow cytometry, rhesus macaque B cell line
T7 construct: whole, on cells
T7 sequence (looked up): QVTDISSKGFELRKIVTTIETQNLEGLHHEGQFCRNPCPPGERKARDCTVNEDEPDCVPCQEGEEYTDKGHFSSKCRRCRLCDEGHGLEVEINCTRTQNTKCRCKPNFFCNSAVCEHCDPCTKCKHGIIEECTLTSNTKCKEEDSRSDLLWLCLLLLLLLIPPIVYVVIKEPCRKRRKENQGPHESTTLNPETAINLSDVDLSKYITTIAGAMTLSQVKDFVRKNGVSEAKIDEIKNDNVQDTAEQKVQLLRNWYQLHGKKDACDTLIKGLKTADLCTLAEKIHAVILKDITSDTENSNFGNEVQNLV
From the text: as §2

[11] = molecular target: T8, Rat Fas on the cell surface (rat, UniProt Q63199 22-324); assay: flow cytometry, rat peripheral blood lymphocytes
T8 construct: whole, on cells; also called Fas on rat peripheral blood lymphocytes
T8 sequence (looked up): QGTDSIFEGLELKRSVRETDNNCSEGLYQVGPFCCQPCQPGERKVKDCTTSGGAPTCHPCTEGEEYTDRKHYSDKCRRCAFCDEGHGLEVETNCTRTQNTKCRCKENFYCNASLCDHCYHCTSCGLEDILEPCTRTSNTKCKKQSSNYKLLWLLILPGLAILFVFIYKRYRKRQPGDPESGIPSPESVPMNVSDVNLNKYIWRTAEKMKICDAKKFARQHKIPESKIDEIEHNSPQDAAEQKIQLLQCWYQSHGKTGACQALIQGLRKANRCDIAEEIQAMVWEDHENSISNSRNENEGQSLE
From the text: as §2

[12] = molecular target: T2, Chimpanzee Fas on the cell surface; assay: flow cytometry, chimpanzee B cell line
From the text: as §2

B1: F45D9-γ1 F(ab′)2 fragment (other)
VH: QVQLQQWGAGLLKPSETLSLICAVYGGSFSTYYWTWIRQPPGKGLEWIGEINHRGTTNYSPSLKSRVTISVDTSKNHISLNLTSVTAADTALYYCARGLLWIGEGDYGLDVWGQGTTVTVSS
VL: DIQMTQSPSSLSASVGDRVTITCRASQGIRRWLAWYQQKPEKAPKSLIYAASSLQSGVPSRFSGSGSGTDFTLTISSLQPEDFATYYCQQYNSYPYTFGQGTKLEIKR
share of binding capacity on Jurkat cells at which complete blocking of FasL-induced apoptosis is achieved [1]: ≥ 12.5%

B2: F45D9-γ4 mAb (recombinant human mAb T19/B5-1F9, gamma-4 isotype) (antibody, V domains shown)
VH: B1 VH
VL: B1 VL
notes: Whole human IgG4 (γ4P allotype vector pIESRαγ4P) with human kappa light chain, made in CHO DG44 cells; also called IgG4; T19/L22/B5-1F9
EC50 (read off the curve) [2]: ~0.6 µg/mL
binding result [3]: binds
IC50 of inhibition of rhFasL-induced apoptosis in SKW6.4 cells (Annexin-V/PI, flow cytometry) [1]: 200 pM
IC50 of inhibition of rhFasL-induced apoptosis in activated human T cells (Annexin-V/PI, flow cytometry) [1]: 20 pM
share of binding capacity on Jurkat cells at which complete blocking of FasL-induced apoptosis is achieved [1]: ≥ 12.5%
Kd [4]: 58.7 pM
EC50 (read off the curve) [5]: ~0.7 µg/mL

B3: F45D9 mAb (isotype not specified at the place) (antibody, V domains shown)
VH: B1 VH
VL: B1 VL
notes: also called F45D9 mAb's
binding result [6]: no binding (tested: 10-20 ug/ml)
binding result [7]: no binding (tested: 10-20 ug/ml)
binding result [8]: no binding
Ka [9]: 6.5e+09 M⁻¹
Kd [9]: 153 pM
binding result [10]: no binding
binding result [11]: no binding (tested: 10-20 ug/ml)
binding result [12]: binds
